Source: patent US20250276075A1, “METHODS OF TREATING AXL-EXPRESSING CANCERS WITH ANTI-AXL ANTIBODIES, ANTIBODY FRAGMENTS AND THEIR IMMUNOCONJUGATES” (BIOATLA, INC., priority 2020, published 2025)

T1: Axl (Homo sapiens, UniProt P30530)
T1 sequence (P30530 26-451 limits assumed): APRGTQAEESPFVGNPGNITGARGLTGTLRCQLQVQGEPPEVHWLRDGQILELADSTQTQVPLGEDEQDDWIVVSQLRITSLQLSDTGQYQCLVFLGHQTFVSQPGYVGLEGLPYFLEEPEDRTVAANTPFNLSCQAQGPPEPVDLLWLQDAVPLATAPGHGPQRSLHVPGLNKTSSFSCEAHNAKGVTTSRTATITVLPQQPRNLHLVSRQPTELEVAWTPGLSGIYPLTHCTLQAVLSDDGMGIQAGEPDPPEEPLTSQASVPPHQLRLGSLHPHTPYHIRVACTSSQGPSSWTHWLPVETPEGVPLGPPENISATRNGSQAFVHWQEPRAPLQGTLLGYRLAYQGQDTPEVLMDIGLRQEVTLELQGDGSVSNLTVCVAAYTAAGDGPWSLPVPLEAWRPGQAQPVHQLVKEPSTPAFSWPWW

B1: LC-T094C (antibody, V domains shown)
VH: EVQLVQSGAEVKKPGATVKISCKVSGYSFTGHTMNWIRQPPGKGLEWIGLIKPSNGGTSYNQKFKGRVTISADKSISTAYLQWSSLKASDTAMYYCAHGHYESYFAMDYWGQGTLVTVSS
VL: DIQMTQSPSSLSASVGDRVTITCKASQDVSSAVAWYQQKPGQAPRLLIYWASTRHTGVPSRFSGSGSGTEFTLTISSLQPDDFATYYCQEHFSCPLTFGQGTKVEIK
B2: HC-E102R (antibody, V domains shown)
VH: EVQLVQSGAEVKKPGATVKISCKVSGYSFTGHTMNWIRQPPGKGLEWIGLIKPSNGGTSYNQKFKGRVTISADKSISTAYLQWSSLKASDTAMYYCAHGHYRSYFAMDYWGQGTLVTVSS
VL: DIQMTQSPSSLSASVGDRVTITCKASQDVSSAVAWYQQKPGQAPRLLIYWASTRHTGVPSRFSGSGSGTEFTLTISSLQPDDFATYYCQEHFSTPLTFGQGTKVEIK
B3: LC-H091I (antibody, V domains shown)
VH: EVQLVQSGAEVKKPGATVKISCKVSGYSFTGHTMNWIRQPPGKGLEWIGLIKPSNGGTSYNQKFKGRVTISADKSISTAYLQWSSLKASDTAMYYCAHGHYESYFAMDYWGQGTLVTVSS
VL: DIQMTQSPSSLSASVGDRVTITCKASQDVSSAVAWYQQKPGQAPRLLIYWASTRHTGVPSRFSGSGSGTEFTLTISSLQPDDFATYYCQEIFSTPLTFGQGTKVEIK
B4: LC-H091C (antibody, V domains shown)
VH: EVQLVQSGAEVKKPGATVKISCKVSGYSFTGHTMNWIRQPPGKGLEWIGLIKPSNGGTSYNQKFKGRVTISADKSISTAYLQWSSLKASDTAMYYCAHGHYESYFAMDYWGQGTLVTVSS
VL: DIQMTQSPSSLSASVGDRVTITCKASQDVSSAVAWYQQKPGQAPRLLIYWASTRHTGVPSRFSGSGSGTEFTLTISSLQPDDFATYYCQECFSTPLTFGQGTKVEIK
B5: LC-P095H (antibody, V domains shown)
VH: EVQLVQSGAEVKKPGATVKISCKVSGYSFTGHTMNWIRQPPGKGLEWIGLIKPSNGGTSYNQKFKGRVTISADKSISTAYLQWSSLKASDTAMYYCAHGHYESYFAMDYWGQGTLVTVSS
VL: DIQMTQSPSSLSASVGDRVTITCKASQDVSSAVAWYQQKPGQAPRLLIYWASTRHTGVPSRFSGSGSGTEFTLTISSLQPDDFATYYCQEHFSTHLTFGQGTKVEIK
B6: LC-P095A (antibody, V domains shown)
VH: EVQLVQSGAEVKKPGATVKISCKVSGYSFTGHTMNWIRQPPGKGLEWIGLIKPSNGGTSYNQKFKGRVTISADKSISTAYLQWSSLKASDTAMYYCAHGHYESYFAMDYWGQGTLVTVSS
VL: DIQMTQSPSSLSASVGDRVTITCKASQDVSSAVAWYQQKPGQAPRLLIYWASTRHTGVPSRFSGSGSGTEFTLTISSLQPDDFATYYCQEHFSTALTFGQGTKVEIK

Tests used:
[1] = molecular target: Axl (UniProt P30530); experiment: ELISA, 1:3 dilution
[2] = molecular target: T1, Axl; experiment: Affinity ELISA of CPE mutant antibodies for binding to Axl at pH 6.0 over pH 7.4; details: for Affinity ELISA CPE mutant ratio (1:3, pH 6.0/7.4): 1:3 dilution; for Affinity ELISA CPE mutant ratio (1:9, pH 6.0/7.4): 1:9 dilution
Text: The DNA encoding the wild-type antibody was evolved to generate a mutant antibody library using Comprehensive Positional Evolution (CPE), which each position in the template antibody is randomized one at a time. Each mutant antibody in the library has only one single point mutation. The mutant antibodies in the library were generated by simultaneously screening for selective binding affinity to Axl at pH 6.0 over pH 7.4 by ELISA. Two mutant antibody dilutions were used: 1:3 and 1:9 dilutions. The mutant antibodies that have at least 1.5 ratio of binding affinity at pH 6.0 to at pH 7.4 under either 1:3 or 1:9 dilution are selected as conditionally active antibodies, with the single point mutations indicated in each of the heavy chain and light chain variable region (Tables 1 and 2).
A wild-type antibody to Axl was selected as the template antibody (with a heavy chain variable region of 063-hum10F10-HC in FIG. 1A and a light chain variable region of […]). The DNA encoding the wild-type antibody was evolved to generate a mutant antibody library using Comprehensive Positional Evolution (CPE), a method by which each position in the template antibody is randomized one at a time. Each mutant antibody in the library has only one single point mutation. The mutant antibodies in the library were generated by simultaneously screening for selective binding affinity to Axl at pH 6.0 over pH 7.4 as determined by ELISA.
Simultaneously, the expression level of the mutant antibodies was also optimized for the purpose of higher fields in a manufacturing process. The screening was done in serum using a FLAG tag because there were human antibodies in the serum which might cause false positives for the screening. The screening buffer was a carbonate buffer (Krebs buffer with ringer-standard buffer but different from PBS). […] Some of the selected mutant antibodies (scFv) were represented in FIG. 2 with their higher activity at pH 6.0 than at pH 7.4, while their activity ratios between pH 6.0 to pH 7.4 were at least 11 fold (FIG. 3).

[3] = molecular target: Axl (UniProt P30530); experiment: ELISA, 1:9 dilution
[4] = light chain variable region mutants
[5] = heavy chain variable region mutants

Row | Molecule | Affinity ELISA CPE mutant ratio (1:3, pH 6.0/7.4) [1] | Affinity ELISA CPE mutant ratio (1:3, pH 6.0/7.4) [2, 4] | Affinity ELISA CPE mutant ratio (1:9, pH 6.0/7.4) [2, 4] | Affinity ELISA CPE mutant ratio (1:9, pH 6.0/7.4) [3] | Affinity ELISA CPE mutant ratio (1:3, pH 6.0/7.4) [2, 5] | Affinity ELISA CPE mutant ratio (1:9, pH 6.0/7.4) [2, 5]
1 | B1 | 1.42 | 1.423 | 1.768 | 1.77 |  | 
2 | B2 | 3.7 |  |  | 3.42 | 3.701 | 3.416
3 | B3 | 1.55 | 1.550 | 2.154 | 2.15 |  | 
4 | B4 | 4 | 4.003 | 3.025 | 3.02 |  | 
5 | B5 | 2.5 | 2.504 | 2.754 | 2.75 |  | 
6 | B6 | 2.52 | 2.523 | 2.987 | 2.99 |  | 
